This passage reports Km results from ChEMBL document CHEMBL1157618, “Noncovalent tripeptidyl benzyl- and cyclohexyl-amine inhibitors of the cysteine protease caspase-1” (J Med Chem, 2010).

Substrate in this series: CC(C)[C@H](NC(=O)c1ccc2ccccc2c1)C(=O)N[C@@H](C)C(=O)N[C@H](CNCc1ccccc1O)CC(=O)O
The following applies: Homo sapiens.

The term Km denotes the concentration of substrate that gives half-maximal velocity.

Description: Activity of human recombinant caspase 1

B1: Caspase-1 (Homo sapiens), P29466 (protein)
chain: MADKVLKEKRKLFIRSMGEGTINGLLDELLQTRVLNKEEMEKVKRENATVMDKTRALIDSVIPKGAQACQICITYICEEDSYLAGTLGLSADQTSGNYLNMQDSQGVLSSFPAPQAVQDNPAMPTSSGSEGNVKLCSLEEAQRIWKQKSAEIYPIMDKSSRTRLALIICNEEFDSIPRRTGAEVDITGMTMLLQNLGYSVDVKKNLTASDMTTELEAFAHRPEHKTSDSTFLVFMSHGIREGICGKKHSEQVPDILQLNAIFNMLNTKNCPSLKDKPKVIIIQACRGDSPGVVWFKDSVGVSGNLSLPTTEEFEDDAIKKAHIEKDFIAFCSSTPDNVSWRHPTMGSVFIGRLIEHMQEYACSCDVEEIFRKVRFSFEQPDGRAQMPTTERVTLTRCFYLFPGH
With B1, the Km was found to be 5.8 µM.
